The values that follow come from patent US20260109747A1.

Common to all, as to assay: cell-based or functional assay
Experiment [1] addresses cynomolgus monkey IL-2Rα/β/γ (cynomolgus monkey).
The target in experiment [2] is human IL-2Rα/β/γ (human) (UniProt P01589).
The target in experiment [3] is human IL-2Rβ/γ (human) (UniProt P14784).
The target of experiment [4] is T1, mouse IL-2Rβ/γ (mouse) (UniProt P16297).
T1 sequence (looked up) 1: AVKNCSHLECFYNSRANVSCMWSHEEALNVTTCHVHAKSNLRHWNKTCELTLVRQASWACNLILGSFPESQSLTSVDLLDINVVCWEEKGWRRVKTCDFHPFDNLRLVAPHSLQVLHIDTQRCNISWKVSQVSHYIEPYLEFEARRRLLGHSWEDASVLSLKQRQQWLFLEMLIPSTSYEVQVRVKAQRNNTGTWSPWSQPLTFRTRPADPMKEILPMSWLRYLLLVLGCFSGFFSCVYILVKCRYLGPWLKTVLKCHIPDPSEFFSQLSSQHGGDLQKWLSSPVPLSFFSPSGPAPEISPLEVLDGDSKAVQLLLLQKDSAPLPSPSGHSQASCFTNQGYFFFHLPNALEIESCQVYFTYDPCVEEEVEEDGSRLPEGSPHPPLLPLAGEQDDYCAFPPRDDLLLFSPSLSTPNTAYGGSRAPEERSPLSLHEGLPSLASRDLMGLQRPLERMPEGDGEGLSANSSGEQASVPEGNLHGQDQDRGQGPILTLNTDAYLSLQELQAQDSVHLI
T1 sequence (looked up) 2: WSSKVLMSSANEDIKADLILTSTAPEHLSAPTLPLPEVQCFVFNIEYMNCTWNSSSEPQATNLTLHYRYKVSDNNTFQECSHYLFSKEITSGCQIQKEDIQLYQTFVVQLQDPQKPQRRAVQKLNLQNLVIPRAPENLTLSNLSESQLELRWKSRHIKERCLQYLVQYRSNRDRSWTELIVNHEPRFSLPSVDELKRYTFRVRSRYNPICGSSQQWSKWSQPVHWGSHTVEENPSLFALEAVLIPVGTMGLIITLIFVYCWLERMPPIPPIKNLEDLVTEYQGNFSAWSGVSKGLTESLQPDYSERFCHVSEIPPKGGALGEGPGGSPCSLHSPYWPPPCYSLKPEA

Sequence of his-tagged mammalian expressed control human IL-2, compound 13 (P60568 other isoform, or with tags, fused parts or gaps limits assumed): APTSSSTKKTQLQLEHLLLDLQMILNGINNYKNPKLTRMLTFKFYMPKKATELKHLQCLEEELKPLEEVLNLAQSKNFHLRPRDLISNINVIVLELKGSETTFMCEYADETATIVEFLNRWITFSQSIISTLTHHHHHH
Sequence of human IL-2Rβ/γ (human) (P14784 27-551, chain 1 of 2): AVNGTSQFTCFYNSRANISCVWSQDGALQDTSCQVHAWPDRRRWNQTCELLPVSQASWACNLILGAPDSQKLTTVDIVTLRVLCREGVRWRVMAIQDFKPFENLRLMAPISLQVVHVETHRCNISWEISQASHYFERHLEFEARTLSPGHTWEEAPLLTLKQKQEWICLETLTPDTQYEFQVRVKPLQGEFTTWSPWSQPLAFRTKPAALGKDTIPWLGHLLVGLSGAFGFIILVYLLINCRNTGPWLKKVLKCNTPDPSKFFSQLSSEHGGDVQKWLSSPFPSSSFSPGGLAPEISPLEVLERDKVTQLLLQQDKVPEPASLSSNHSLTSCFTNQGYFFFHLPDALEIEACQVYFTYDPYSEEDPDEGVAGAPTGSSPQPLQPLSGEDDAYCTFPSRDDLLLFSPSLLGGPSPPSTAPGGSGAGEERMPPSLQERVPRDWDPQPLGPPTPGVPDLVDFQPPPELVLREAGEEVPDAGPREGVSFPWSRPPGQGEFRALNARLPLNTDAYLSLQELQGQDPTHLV
Sequence of human IL-2Rβ/γ (human) (P31785 23-369, chain 2 of 2, further chain): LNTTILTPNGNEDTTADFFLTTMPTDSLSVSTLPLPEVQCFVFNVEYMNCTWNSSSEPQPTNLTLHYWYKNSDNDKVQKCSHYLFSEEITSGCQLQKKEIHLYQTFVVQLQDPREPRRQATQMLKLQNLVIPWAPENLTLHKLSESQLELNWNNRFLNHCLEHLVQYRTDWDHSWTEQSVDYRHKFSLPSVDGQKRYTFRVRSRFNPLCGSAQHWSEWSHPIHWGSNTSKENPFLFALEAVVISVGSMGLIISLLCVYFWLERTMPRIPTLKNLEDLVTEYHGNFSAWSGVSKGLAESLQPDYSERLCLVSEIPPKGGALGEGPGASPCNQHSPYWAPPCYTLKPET
Sequence of human IL-2Rα/β/γ (human) (P01589 22-272, chain 1 of 3): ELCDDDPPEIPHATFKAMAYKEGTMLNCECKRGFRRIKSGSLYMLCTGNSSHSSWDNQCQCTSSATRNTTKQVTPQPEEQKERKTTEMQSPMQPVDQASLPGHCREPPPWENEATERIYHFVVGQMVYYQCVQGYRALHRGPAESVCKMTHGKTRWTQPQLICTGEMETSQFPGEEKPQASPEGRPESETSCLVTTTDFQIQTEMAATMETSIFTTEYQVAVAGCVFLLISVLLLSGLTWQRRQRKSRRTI
Sequence of human IL-2Rα/β/γ (human) (P14784 27-551, chain 2 of 3, further chain): as the sequence (P14784 27-551, chain 1 of 2) above
Sequence of human IL-2Rα/β/γ (human) (P31785 23-369, chain 3 of 3, further chain): as the sequence (P31785 23-369, chain 2 of 2, further chain) above

Consider “his-tagged mammalian expressed control human IL-2, compound 13 (from UniProt P60568 21-153) (ligand)”, for which the pSTAT5 EC50, Treg, cynomolgus monkey whole blood in experiment [1] worked out at 0.09 ng/mL. The pSTAT5 EC50, Treg, human whole blood in experiment [2] was 0.09 ng/mL. Moreover, in experiment [3], the pSTAT5 EC50, CD8, human blood (additional experiments) was determined as 4.94 ng/mL; the pSTAT5 EC50, CD8, human whole blood was found to be 25.7 ng/mL; the pSTAT5 EC50, NK, human blood (additional experiments) stood at 17.6 ng/mL; the pSTAT5 EC50, NK, human whole blood was 6.01 ng/mL. In experiment [4], this substance displayed a pSTAT5 EC50, CD8, mouse blood of 24000 ng/mL and a pSTAT5 EC50, NK, mouse blood of 9690 ng/mL.
